A word on the Kd: it is the free concentration of one partner at which half of the binding sites on the other are occupied at equilibrium, for simple one-to-one binding. A higher Kd goes with weaker binding. As usually defined, the EC50 (read off the curve) is the midpoint of the concentration-response curve.

In assay [1] the target is T1, neonatal Fc receptor (FcRn) on FcRn Affinity Column Gen2 (Roche, Cat #09430857001) (UniProt P55899 24-297; P61769 21-119, limits assumed). Kind of assay: FcRn-HPLC (Roche FcRn Affinity Column Gen2), peak width at 50% peak height.
Description: (§1) Stock antibody solutions were diluted to 1 mg/mL into 20 mM MES, 140 mM NaCl, pH5.5. […] 20 μμL antibody injections were made followed by 10 minute column wash with 20 mM MES, 140 mM NaCl, pH5.5. Antibodies were then eluted by pH gradient elution into 20 mM Tris, 140 mM NaCl, pH8.8 over 90 minutes. Chromatograms were blank-subtracted to remove baseline drift.
Assay [2] addresses T1, neonatal Fc receptor (FcRn) on FcRn …. The assay is described as follows: FcRn-HPLC (Roche FcRn Affinity Column Gen2), pH gradient 5.5 to 8.8 over 90 minutes.
Description: as §1
Assay [3] addresses T2, human FcγRI (CD64) extracellular domain (human, UniProt P12314 16-292).
T2 construct: extracellular domain; also called FcγRI ECD
Kind of assay: SPR at 25 C (Biacore T200), antibody captured on Protein A chip, FcγR ECD as analyte; average of 3, SD 0.4. A general note: SPR reads the build-up and loss of mass on a sensor chip optically.
Description: (§2) Briefly, the surfaces of all 4 flow cells were activated by injecting a 1:1 mixture of EDC/NHS for 7 minutes at 10 μL/minute. […] Un-reacted sites were blocked with a 7-minute injection of ethanolamine at 10 μL/minute. Injections of 2×10 μL of glycine pH 1.5 were used to remove any noncovalently associated protein.
For FcγRI binding, antibodies were diluted to 2.5 g/mL in running buffer (1x HBS-EP+, Teknova P/N H8022), and approximately 150 RU of each antibody was captured in flow cells 2 through 4 (RUcaptured). FC1 was the reference flow cell, therefore, no antibody was captured in FC1. […] Duplicate injections of each concentration were injected over all FCs at 40 μL/minute for 120 seconds followed by a 1200 second dissociation phase. Regeneration was performed by injecting 15 μL of 10 mM glycine pH 1.5 at 30 μL/minute over all FCs. Reference-subtracted data was collected as FC2-FC1, FC3-FC1, and FC4-FC1. The measurements were obtained at 25° C. The affinity (KD) was calculated using either steady state equilibrium analysis with the Scrubber 2 Biacore® Evaluation Software or a “1:1 (Langmuir) binding” model in BIA Evaluation.

The target of assay [4] is T3, human FcγRIIIA_158F (CD16a) extracellular domain (human, UniProt P08637 17-208).
T3 construct: extracellular domain
The assay is described as follows: SPR at 25 C (Biacore T200), antibody captured on Protein A chip, FcγR ECD as analyte, steady state; average of 3, SD 0.03.
Description: as §2
(§3) For FcγRIIa, FcγRIIb, and FcγRIIIa binding, antibodies were diluted to 5 μg/mL in running buffer, and approximately 500 RU is captured in flow cells 2 through 4 (RUcaptured). FC1 is the reference flow cell. […] Duplicate injections of each concentration were injected over all FCs at 40 L/minute for 60 seconds followed by a 120 second dissociation phase. Regeneration was performed by injecting 15μL of 10 mM glycine pH 1.5 at 30 μL/minute over all FCs.
(§4) Reference-subtracted data was collected as FC2-FC1, FC3-FC1, and FC4-FC1. The measurements were obtained at 25° C. The affinity (KD) was calculated using the steady state equilibrium analysis with the Scrubber 2 Biacore® Evaluation Software.

Assay [5] has as its target T4, human FcγRIIb (CD32b) extracellular domain (human, UniProt P31994 43-217).
T4 construct: extracellular domain
T4 sequence (looked up): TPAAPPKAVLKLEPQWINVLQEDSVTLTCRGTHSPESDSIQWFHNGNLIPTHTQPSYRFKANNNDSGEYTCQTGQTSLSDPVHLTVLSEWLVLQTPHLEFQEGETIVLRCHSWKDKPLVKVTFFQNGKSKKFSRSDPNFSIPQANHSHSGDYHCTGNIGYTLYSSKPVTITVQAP
Kind of assay: SPR at 25 C (Biacore T200), antibody captured on Protein A chip, FcγR ECD as analyte, steady state; average of 3, SD 0.17.
Description: as §2, §3, §4

Assay [6] addresses T5, Human C1q (MS Biomedical) (human, UniProt P02745 23-245; P02746 28-253; P02747 29-245).
T5 construct: the three subunits are from general knowledge; also called complement component C1q; Clq
The assay is described as follows: C1q ELISA, plate coated with the antibody at 0.19-10 ug/mL, human C1q added at 10 ug/mL, sheep anti-human C1q-HRP detection, OD450.
Description: Testing was performed in duplicate wells. The plate was sealed and incubated overnight at 4° C. The coating reagent was removed from each well and 200 μL/well of casein blocking reagent (Thermo) was added. The plate was sealed and incubated for 2 hours at room temperature (RT). Each well was washed 3 times with wash buffer (1xTBE with 0.05% Tween 20). One hundred microliters per well of Human Clq (MS Biomedical) at 10 μg/mL diluted in casein blocking reagent was added and incubated for 3 hours at RT. The plate was then washed three times with wash buffer before 100 L/well of a 1:800 dilution of Sheep anti-human C1q-HRP (Abcam #ab46191) in casein blocker was added and incubated for 1 hour at RT. The plate was washed 6 times with wash buffer, and 100 μL/well of TMB Substrate (Pierce) was added to each well and incubated for 7 minutes. One hundred microliters of 1 N HCl was added to each well to stop the reaction.

Assay [7] addresses T6, Recombinant LEPR extracellular domain fused to hIgG1-Fc (human LEPR ECD-TEV-Fc) (human).
T6 construct: The entry holds ECD, TEV site, human IgG1 Fc and a His tag in one chain; also called LEPR-Fc; hLEPR-TEV-hIgG1Fc
Kind of assay: ELISA, plate coated with human LEPR ECD (SEQ ID NO:30) at 2 ug/mL, antibody titrated 1:3 from 50 ug/mL, goat anti-human kappa AP detection, OD560. (In general: An ELISA detects its analyte on a solid surface through an enzyme-linked reagent.)
Description: The plate was then washed. Antibodies were titrated, starting at 50 μg/mL in Casein with 1:3 serial dilutions across the plate. Plate was incubated at RT for 1 hr. The plate is then washed.
The mixture was incubated at RT for 1 hr. The plate is then washed.
The curves indicate relative binding of IgG antibodies to human LEPR. The LEPR is bound to an ELISA plate and the antibodies are titrated in 3-fold increments starting at 50 μg/mL.

T1 sequence (P55899 24-297 limits assumed, chain 1 of 2): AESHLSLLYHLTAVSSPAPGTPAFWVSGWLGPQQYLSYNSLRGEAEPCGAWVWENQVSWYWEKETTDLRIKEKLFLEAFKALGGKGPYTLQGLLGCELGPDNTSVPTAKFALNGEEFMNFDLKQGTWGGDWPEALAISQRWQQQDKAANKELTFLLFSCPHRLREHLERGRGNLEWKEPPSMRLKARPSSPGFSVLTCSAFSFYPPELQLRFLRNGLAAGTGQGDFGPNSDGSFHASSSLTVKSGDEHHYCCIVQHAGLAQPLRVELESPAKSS
T1 sequence (P61769 21-119 limits assumed, chain 2 of 2): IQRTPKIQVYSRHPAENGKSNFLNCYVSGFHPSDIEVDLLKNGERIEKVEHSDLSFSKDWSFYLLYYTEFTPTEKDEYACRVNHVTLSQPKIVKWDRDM
T5 sequence (P02745 23-245 limits assumed, chain 1 of 3): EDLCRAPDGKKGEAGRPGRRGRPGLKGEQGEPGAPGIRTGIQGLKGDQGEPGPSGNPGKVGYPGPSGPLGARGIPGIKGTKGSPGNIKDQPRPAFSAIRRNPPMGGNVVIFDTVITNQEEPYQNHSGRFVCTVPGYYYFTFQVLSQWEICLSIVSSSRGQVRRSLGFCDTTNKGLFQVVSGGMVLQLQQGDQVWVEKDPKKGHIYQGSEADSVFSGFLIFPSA
T5 sequence (P02746 28-253 limits assumed, chain 2 of 3): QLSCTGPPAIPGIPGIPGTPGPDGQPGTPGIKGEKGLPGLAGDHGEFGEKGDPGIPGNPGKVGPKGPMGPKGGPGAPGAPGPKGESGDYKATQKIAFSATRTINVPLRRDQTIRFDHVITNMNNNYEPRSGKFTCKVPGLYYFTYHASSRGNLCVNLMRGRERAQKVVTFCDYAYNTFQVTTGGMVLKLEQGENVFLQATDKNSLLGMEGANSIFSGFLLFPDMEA
T5 sequence (P02747 29-245 limits assumed, chain 3 of 3): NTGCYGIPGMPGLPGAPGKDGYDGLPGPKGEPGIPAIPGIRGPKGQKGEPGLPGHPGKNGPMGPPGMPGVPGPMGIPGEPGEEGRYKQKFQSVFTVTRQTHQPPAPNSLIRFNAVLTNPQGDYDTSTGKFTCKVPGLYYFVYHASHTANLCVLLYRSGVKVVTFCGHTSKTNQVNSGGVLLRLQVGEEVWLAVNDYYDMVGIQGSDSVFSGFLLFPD
T2 sequence (P12314 16-292): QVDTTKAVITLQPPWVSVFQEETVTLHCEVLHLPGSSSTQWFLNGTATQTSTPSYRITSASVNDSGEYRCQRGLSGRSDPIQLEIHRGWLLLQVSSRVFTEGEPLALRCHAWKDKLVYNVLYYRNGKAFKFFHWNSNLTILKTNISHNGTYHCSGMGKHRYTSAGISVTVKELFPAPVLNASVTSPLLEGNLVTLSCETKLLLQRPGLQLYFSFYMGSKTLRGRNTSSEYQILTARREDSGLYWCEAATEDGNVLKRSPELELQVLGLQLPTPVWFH
T6 sequence (chain, as listed by the source limits assumed): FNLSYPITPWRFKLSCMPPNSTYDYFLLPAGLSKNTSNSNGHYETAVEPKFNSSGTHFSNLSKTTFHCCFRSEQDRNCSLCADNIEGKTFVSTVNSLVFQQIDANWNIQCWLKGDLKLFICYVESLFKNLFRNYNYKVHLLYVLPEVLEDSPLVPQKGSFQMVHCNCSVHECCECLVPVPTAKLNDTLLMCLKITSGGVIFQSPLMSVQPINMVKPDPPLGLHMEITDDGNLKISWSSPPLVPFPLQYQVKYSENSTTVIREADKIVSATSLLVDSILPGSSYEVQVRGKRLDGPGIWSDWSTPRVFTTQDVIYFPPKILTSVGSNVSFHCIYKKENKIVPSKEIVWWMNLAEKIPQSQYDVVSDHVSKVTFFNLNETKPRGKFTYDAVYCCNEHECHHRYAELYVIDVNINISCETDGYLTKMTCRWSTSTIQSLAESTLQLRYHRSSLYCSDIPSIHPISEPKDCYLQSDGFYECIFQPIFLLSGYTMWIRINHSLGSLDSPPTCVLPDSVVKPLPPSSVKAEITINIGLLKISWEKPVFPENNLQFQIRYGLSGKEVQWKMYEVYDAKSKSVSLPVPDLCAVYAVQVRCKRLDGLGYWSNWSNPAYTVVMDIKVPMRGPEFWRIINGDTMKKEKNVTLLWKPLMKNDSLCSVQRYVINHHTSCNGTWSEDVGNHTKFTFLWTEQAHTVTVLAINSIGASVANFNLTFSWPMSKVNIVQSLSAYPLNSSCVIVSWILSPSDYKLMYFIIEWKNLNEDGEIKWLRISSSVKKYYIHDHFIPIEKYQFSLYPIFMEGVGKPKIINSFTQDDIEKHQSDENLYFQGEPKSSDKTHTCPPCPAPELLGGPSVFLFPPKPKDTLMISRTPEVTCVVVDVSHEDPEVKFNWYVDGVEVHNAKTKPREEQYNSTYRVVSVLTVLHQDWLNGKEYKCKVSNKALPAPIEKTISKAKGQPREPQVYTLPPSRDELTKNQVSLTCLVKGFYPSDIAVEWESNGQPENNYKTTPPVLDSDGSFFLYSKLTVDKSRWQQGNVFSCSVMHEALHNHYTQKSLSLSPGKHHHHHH
T3 sequence (P08637 17-208): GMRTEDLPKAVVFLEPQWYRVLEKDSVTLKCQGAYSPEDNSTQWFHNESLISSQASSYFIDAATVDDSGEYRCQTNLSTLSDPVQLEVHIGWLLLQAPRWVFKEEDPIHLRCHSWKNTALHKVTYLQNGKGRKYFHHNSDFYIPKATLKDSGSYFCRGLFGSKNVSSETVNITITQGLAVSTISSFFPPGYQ

B1: Antibody A-IgG1 (antibody)
heavy: not shown
light: DIQMTQSPSFLSASVGDRVTITCRASQGISSSLAWYQQKPGKAPKLLIYTASTLQSGVPSRFSGSGSGTEFTLTISSLQPEDFATYYCQQLIYYPFTFGQGTKVEIKRTVAAPSVFIFPPSDEQLKSGTASVVCLLNNFYPREAKVQWKVDNALQSGNSQESVTEQDSKDSTYSLSSTLTLSKADYEKHKVYACEVTHQGLSSPVTKSFNRGEC
notes: there they lie 3 residues further on); also called Antibody A-IgG1 control; Antibody-A with non-modified IgG1
With B1, the “Peak Width” value in assay [1] was 1.7 min. Also, in assay [2], the “Retention Time” value turned out to be 69.5 min. Further, the values for the Kd in assay [3], in assay [4] and in assay [5] were 0.0676 nM, 1560 nM and 3.61 µM, respectively. Besides, in assay [6], the “EC50 (read off the curve)” value was around 1 µg/mL.

B2: Antibody A IgG4PAA-YTE (antibody)
heavy: EVQLLESGGGLVQPGGSLRLSCAASGFTFSSFAMSWVRQAPGKGLEWVSAISGSGGSTYSADSVRGRFTISRDNSKNTLYLQMNSLRAEDTAVYYCAKDQGDWDFLFDYWGQGTLVTVSSASTKGPSVFPLAPCSRSTSESTAALGCLVKDYFPEPVTVSWNSGALTSGVHTFPAVLQSSGLYSLSSVVTVPSSSLGTKTYTCNVDHKPSNTKVDKRVESKYGPPCPPCPAPEAAGGPSVFLFPPKPKDTLYITREPEVTCVVVDVSQEDPEVQFNWYVDGVEVHNAKTKPREEQFNSTYRVVSVLTVLHQDWLNGKEYKCKVSNKGLPSSIEKTISKAKGQPREPQVYTLPPSQEEMTKNQVSLTCLVKGFYPSDIAVEWESNGQPENNYKTTPPVLDSDGSFFLYSRLTVDKSRWQEGNVFSCSVMHEALHNHYTQKSLSLSLGK
light: DIQMTQSPSFLSASVGDRVTITCRASQGISSSLAWYQQKPGKAPKLLIYTASTLQSGVPSRFSGSGSGTEFTLTISSLQPEDFATYYCQQLIYYPFTFGQGTKVEIKRTVAAPSVFIFPPSDEQLKSGTASVVCLLNNFYPREAKVQWKVDNALQSGNSQESVTEQDSKDSTYSLSSTLTLSKADYEKHKVYACEVTHQGLSSPVTKSFNRGEC
notes: VH and VL matched to Antibody A; Positions are Fc numbering as printed (EU index implied)
In the case of B2, the “Peak Width” value in assay [1] was determined as 2.7 min. Besides, the “Retention Time” value in assay [2] is 79.6 min.

B3: Antibody A IgG1-YTE (antibody)
heavy: EVQLLESGGGLVQPGGSLRLSCAASGFTFSSFAMSWVRQAPGKGLEWVSAISGSGGSTYSADSVRGRFTISRDNSKNTLYLQMNSLRAEDTAVYYCAKDQGDWDFLFDYWGQGTLVTVSSASTKGPSVFPLAPSSKSTSGGTAALGCLVKDYFPEPVTVSWNSGALTSGVHTFPAVLQSSGLYSLSSVVTVPSSSLGTQTYICNVNHKPSNTKVDKRVEPKSCDKTHTCPPCPAPELLGGPSVFLFPPKPKDTLYITREPEVTCVVVDVSHEDPEVKFNWYVDGVEVHNAKTKPREEQYNSTYRVVSVLTVLHQDWLNGKEYKCKVSNKALPAPIEKTISKAKGQPREPQVYTLPPSREEMTKNQVSLTCLVKGFYPSDIAVEWESNGQPENNYKTTPPVLDSDGSFFLYSKLTVDKSRWQQGNVFSCSVMHEALHNHYTQKSLSLSPGK
light: DIQMTQSPSFLSASVGDRVTITCRASQGISSSLAWYQQKPGKAPKLLIYTASTLQSGVPSRFSGSGSGTEFTLTISSLQPEDFATYYCQQLIYYPFTFGQGTKVEIKRTVAAPSVFIFPPSDEQLKSGTASVVCLLNNFYPREAKVQWKVDNALQSGNSQESVTEQDSKDSTYSLSSTLTLSKADYEKHKVYACEVTHQGLSSPVTKSFNRGEC
On to B3, for which the “Peak Width” value in assay [1] was 2.8 min. For the same molecule, in assay [2], the “Retention Time” value was 80.3 min.

B4: Antibody D (antibody, human IgG1, kappa, L234A L235A, V domains shown)
VH: EVQLLESGGGLVQPGGSLRLSCAASGFTFSSFAMSWVRQAPGKGLEWVSAISGSGGSTYSADSVRGRFTISRDNSKNTLYLQMNSLRAEDTAVYYCAKDQGDWDFLFDYWGQGTLVTVSS
VL: DIQMTQSPSFLSASVGDRVTITCRASQGISSSLAWYQQKPGKAPKLLIYTASTLQSGVPSRFSGSGSGTEFTLTISSLQPEDFATYYCQQLNYYPFTFGQGTKVEIKR
notes: Same HC as Antibody A
In the case of B4, the “EC50 (read off the curve)” value in assay [7] is around 0.07 µg/mL.

The values above are taken from US20250289897A1 (Eli Lilly, published 2025).
